T1: Cynomolgus TNFR2-His (Sino 90102-C08H) (cynomolgus monkey, UniProt A0A2K5VET2 132-366)
T1 construct: Bought protein; also called cynomolgus monkey TNFR2; recombinant cynomolgus monkey TNFR2 protein; not shown: His tag
T1 sequence: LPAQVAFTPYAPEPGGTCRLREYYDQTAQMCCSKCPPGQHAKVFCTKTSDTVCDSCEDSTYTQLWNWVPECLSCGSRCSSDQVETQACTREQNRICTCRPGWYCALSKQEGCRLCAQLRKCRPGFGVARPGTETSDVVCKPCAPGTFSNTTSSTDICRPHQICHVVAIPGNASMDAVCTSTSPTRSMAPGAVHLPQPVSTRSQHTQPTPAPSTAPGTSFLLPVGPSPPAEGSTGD

T2: Human TNFR2-His (Sino 10417-H08H) (human, UniProt P20333 23-257)
T2 construct: Bought protein; also called recombinant human TNFR2 protein; not shown: His tag
T2 sequence (looked up): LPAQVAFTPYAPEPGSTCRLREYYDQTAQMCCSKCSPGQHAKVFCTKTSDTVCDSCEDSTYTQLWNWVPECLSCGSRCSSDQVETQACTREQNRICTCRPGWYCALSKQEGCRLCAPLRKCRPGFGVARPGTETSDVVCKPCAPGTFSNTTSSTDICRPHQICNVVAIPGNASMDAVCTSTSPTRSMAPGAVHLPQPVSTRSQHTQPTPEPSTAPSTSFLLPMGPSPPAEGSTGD

T3: human TNFR2 on the surface of CHO-TNFR2 cells (human, UniProt P20333 23-461)
T3 construct: whole, on cells
T3 sequence (looked up): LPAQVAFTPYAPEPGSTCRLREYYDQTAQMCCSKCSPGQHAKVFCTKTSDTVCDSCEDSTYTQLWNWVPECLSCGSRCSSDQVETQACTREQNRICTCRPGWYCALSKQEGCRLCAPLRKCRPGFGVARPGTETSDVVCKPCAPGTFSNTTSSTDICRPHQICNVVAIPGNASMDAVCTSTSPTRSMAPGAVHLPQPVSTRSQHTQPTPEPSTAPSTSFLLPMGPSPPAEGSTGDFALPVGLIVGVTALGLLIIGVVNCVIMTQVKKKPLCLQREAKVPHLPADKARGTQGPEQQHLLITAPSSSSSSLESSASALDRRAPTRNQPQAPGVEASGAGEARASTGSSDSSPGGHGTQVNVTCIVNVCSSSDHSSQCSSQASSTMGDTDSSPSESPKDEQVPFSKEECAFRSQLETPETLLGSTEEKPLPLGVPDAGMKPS


How the values were obtained:
[1] = target: T1, Cynomolgus TNFR2-His (Sino 90102-C08H); test: ELISA, cynomolgus TNFR2-His coated; EC50 against 224-WT
Protocol: (§1) The test humanized antibody against TNFR2 (as described in Example 1, the antibody was comprised of variable regions linked to IgG-Fc; the WT chimeric antibody also adopted the IgG-Fc structure) was subjected to 3.33-fold gradient dilution, loaded with 100 μl/well, and incubated with shaking at room temperature for 1.5 hours. The plate was washed, and then a working solution of murine anti-human IgG Fc-HRP (diluted at 1:10000) was added, loaded with 100 μl/well, and incubated with shaking at room temperature for 1.0 hour. The plate was washed again, and then the substrate TMB of HRP was added to develop colour. A stop solution was added to stop the reaction, and then a microplate reader (MD 13) was used to read the absorbance value. The binding curve of an antibody was drawn with antibody concentration as the abscissa and corresponding OD value as the ordinate, and fitted with four parameters (GraphPad Prism9) to calculate the EC50 value. The smaller the EC50 value, the stronger the binding ability of an antibody to human/cynomolgus monkey TNFR2. The binding effect of a humanized antibody was normalized to its corresponding human-murine chimeric antibody WT (see SEQ ID NOs: 38-43 for the sequence). The higher the percentage value, the better the binding effect of the humanized antibody. The results of binding of an anti-TNFR2 antibody to a human TNFR2 protein are shown in FIG. 1 and Table 4, and the results of binding of an anti-TNFR2 antibody to cynomolgus monkey TNFR2 are shown in FIG. 2 and Table 4.

[2] = target: T2, Human TNFR2-His (Sino 10417-H08H); test: ELISA, human TNFR2-His coated; EC50 against 224-WT
Protocol: as §1

[3] = target: T3, human TNFR2 on the surface of CHO-TNFR2 …; test: competition flow cytometry on CHO-TNFR2 cells, competitor TNFα-biotin; AUC against 224-WT
Protocol: CHO stable cells highly expressing human TNFR2 were used for the experiment (the same as CHO-TNFR2 in Example 4). The CHO-TNFR2 cells were digested, washed twice with DPBS, then stained with Live/Dead (L/D) (20 minutes at room temperature), and plated at a density of 1×10⁵ cells/50 μl/well. A test anti-TNFR2 antibody was diluted to 6 μg/ml with a staining buffer as the starting concentration: the antibody was subjected to 3.33-fold gradient dilution, with a total of 7 concentration points. The diluted antibody was added to the plated cells at 50 μl/well, and the mixture was mixed well by gentle pipetting, and incubated at 4° C. for 30 minutes. Then the diluted 100 ng/ml of human TNFα-biotin was added at 100 μl/well, and the mixture was mixed well by gentle pipetting, and then incubated at 4° C. for 30 minutes. The mixture was washed twice with a staining buffer, and then 0.12 μg/ml PE-streptavidin (BioLegend, Cat #405204) was added at 100 μl/well; the resulting mixture was incubated at 4° C. for 30 minutes. The mixture was washed twice with a staining buffer, and then 150 μl of staining buffer was added to resuspend the cells; signals were detected by a flow cytometer (Thermo Attune NxT). The inhibitory curve of an antibody was drawn with antibody concentration as the abscissa and corresponding MFI value as the ordinate, and fitted with four parameters (GraphPad Prism9) to calculate the IC50 value. The smaller the IC50 value, the stronger the ability of an antibody to inhibit the binding of human TNFα to human TNFR2. The blocking effect of a humanized antibody was normalized to its corresponding human-murine chimeric WT antibody. The higher the percentage value, the better the inhibitory effect of the humanized antibody.

Row | % Relative activity (WT antibody/test antibody) [1] [%] | % Relative activity (WT antibody/test antibody) [2] [%] | % Relative activity (WT antibody/test antibody) [3] [%] | Binder
1 | 105 | 143 | 99.2 | 224-Hu1 (antibody, V domains shown, Humanized form of #224; also called VH8 + VL6) VH: QVQLVQSGAEVKKPGASVKVSCKASGFNNKDIYMHWVRQAPGQGLEWIGRIDPATGNTKHDPKFQDRVTMTSDTSTNTVYMELSSLRSEDTAVYYCARSPYGDFGAMDYWGQGTLVTVSS VL: DIQMTQSPSSLSASVGDRVTITCTASSSVSSNYLHWYQQKPGKAPKLWIYSTSNLPSGVPSRFSGSGSGTDFTLTISSLQPEDFATYYCHQYHRSPWTFGQGTKVEIK
2 | 116 | 110 | 91.1 | 224-Hu7 (antibody, V domains shown, Humanized form of #224; also called VH9 + VL10) VH: QVQLVQSGSELKKPGASVKVSCKASGFNNKDIYMHWVRQAPGQGLEWMGRIDPATGNTKHDPKFQDKAVLSSDTSVSTAYLQISSLKAEDTAVYYCARSPYGDFGAMDYWGQGTLVTVSS VL: DIQMTQSPSSLSASVGDRVTITCTASSSVSSNYLHWYQQKPGKAPKLLIYSTSNLPSGVPSRFSGSGSGTDFTLTISSLQPEDFATYYCHQYHRSPWTFGQGTKVEIK
3 | 108 | 122 | 95.6 | 224-Hu3 (antibody, V domains shown, Humanized form of #224; also called VH9 + VL8) VH: QVQLVQSGSELKKPGASVKVSCKASGFNNKDIYMHWVRQAPGQGLEWMGRIDPATGNTKHDPKFQDKAVLSSDTSVSTAYLQISSLKAEDTAVYYCARSPYGDFGAMDYWGQGTLVTVSS VL: DIQMTQSPSSLSASVGDRVTITCTASSSVSSNYLHWYQQKPGKAPKLLIYSTSNLPSGVPSRFSGSGSGTDFTLTISSLQAEDAATYYCHQYHRSPWTFGQGTKVEIK
4 | 109 | 138 | 105 | 224-Hu2 (antibody, V domains shown, Humanized form of #224; also called VH9 + VL7) VH: QVQLVQSGSELKKPGASVKVSCKASGFNNKDIYMHWVRQAPGQGLEWMGRIDPATGNTKHDPKFQDKAVLSSDTSVSTAYLQISSLKAEDTAVYYCARSPYGDFGAMDYWGQGTLVTVSS VL: DIQMTQSPSSLSASVGDRVTITCTASSSVSSNYLHWYQQKPGSSPKLWIYSTSNLPSGVPSRFSGSGSGTDFTLTISSLQPEDFATYYCHQYHRSPWTFGQGTKVEIK
5 | 104 | 104 | 99.4 | 224-Hu6 (antibody, V domains shown, Humanized form of #224; also called VH8 + VL7) VH: QVQLVQSGAEVKKPGASVKVSCKASGFNNKDIYMHWVRQAPGQGLEWIGRIDPATGNTKHDPKFQDRVTMTSDTSTNTVYMELSSLRSEDTAVYYCARSPYGDFGAMDYWGQGTLVTVSS VL: DIQMTQSPSSLSASVGDRVTITCTASSSVSSNYLHWYQQKPGSSPKLWIYSTSNLPSGVPSRFSGSGSGTDFTLTISSLQPEDFATYYCHQYHRSPWTFGQGTKVEIK
6 | 108 | 108 | 97.3 | 224-Hu4 (antibody, V domains shown, Humanized form of #224; also called VH9 + VL6) VH: QVQLVQSGSELKKPGASVKVSCKASGFNNKDIYMHWVRQAPGQGLEWMGRIDPATGNTKHDPKFQDKAVLSSDTSVSTAYLQISSLKAEDTAVYYCARSPYGDFGAMDYWGQGTLVTVSS VL: DIQMTQSPSSLSASVGDRVTITCTASSSVSSNYLHWYQQKPGKAPKLWIYSTSNLPSGVPSRFSGSGSGTDFTLTISSLQPEDFATYYCHQYHRSPWTFGQGTKVEIK
7 | 106 | 99.4 | 94.4 | 224-Hu5 (antibody, V domains shown, Humanized form of #224; also called VH9 + VL9) VH: QVQLVQSGSELKKPGASVKVSCKASGFNNKDIYMHWVRQAPGQGLEWMGRIDPATGNTKHDPKFQDKAVLSSDTSVSTAYLQISSLKAEDTAVYYCARSPYGDFGAMDYWGQGTLVTVSS VL: DIQMTQSPSSLSASVGDRVTITCTASSSVSSNYLHWYQQKPGKAPKLLIYSTSNLPSGVPSRFSGSGSGTDYSLTISSLQPEDFATYYCHQYHRSPWTFGQGTKVEIK
